Results from US10654893B2, “Self-assembling peptide compositions” (3-D MATRIX, LTD., priority 2014, dated 2020).

Assays:
Format in all cases: physicochemical
[1] = Visual observation of peptide compositions with selected salts (cloud point, critical ionic strength); conditions: for Observation: room temperature; for Conc. at cloud point / Ionic strength at cloud point: visual observation of solubility
Protocol: Visual observations of RADA16 (SEQ ID NO:1), KLD12 (SEQ ID NO:2), and IEIK13 (SEQ ID NO:3) compositions with selected salts (e.g. KCl, MgCl2, CaCl2) are summarized in Tables 7-9. […] Apparent stiffness of RADA16 (SEQ ID NO:1), KLD12 (SEQ ID NO:2) and IEIK13 (SEQ ID NO:3) compositions was increased with increased ionic strength.
Critical ion strengths were determined from the visual observations recorded in Tables 7-9. When the ionic strengths of peptide compositions were higher than 0.9 M (RADA16 (SEQ ID NO:1)), 0.3 M (KLD12 (SEQ ID NO:2)) or 0.03 M (IEIK13 (SEQ ID NO:3)), the peptide compositions began phase separation. 0.9 M, 0.3 M and 0.03 M may represent critical ion strengths for RADA16 (SEQ ID NO:1), KLD12 (SEQ ID NO:2) and IEIK13 (SEQ ID NO:3), respectively.

[2] = Stiffness and reversibility of RADA16 compositions with salts
Protocol: FIGS. 41A-41D depict the protocol used to follow peptide dissolution and to assess effects of particular anions and/or cations, and/or their concentration, on certain RADA16 (SEQ ID NO:1) compositions. As shown, peptide powder in a vial was dissolved in deionized water with vortexing and sonication. The particular peptide composition utilized in this Example was a 1% composition of RADA16 (SEQ ID NO:1) that was mixed at a 1:1 ratio with a 2× salt solution to obtain a final concentration of 0.5% RADA16 (SEQ ID NO:1) and the desired molar concentration of salt.
The protocol depicted in FIGS. 41A-41D was followed to analyze stiffness of peptide compositions containing either 2.5% RADA16 (SEQ ID NO:1) and no added salt or 2.5% RADA16 (SEQ ID NO:1) and 0.125 M CaCl2. Results are shown in FIG. 44, which provides a basic understanding of the viscoelastic properties of the resulting compositions.
The protocol depicted in FIGS. 41A-41D was followed to prepare solutions of 0.5% RADA16 mixed with 0.125, 0.25, or 0.5 M CaCl2 were prepared. The compositions were subjected to mechanical stress through vortexing and sonication, so that their structure was thoroughly disrupted (e.g., randomized). Disrupted compositions were then placed at room temperature for 48 hours to allow self-assembly to take place.

[3] = Rheological properties at selected ionic strengths (DHR-1, 20 mm plates)
Text: FIGS. 27-29 show rheological properties measured with a rheometer (DHR-1, TA Instruments) with 20 mm plates when ion strengths are slightly lower than the critical ion strengths. Ion strengths of RADA16 (SEQ ID NO:1), KLD12 (SEQ ID NO:2) and IEIK13 (SEQ ID NO:3) were 0.7 M, 0.2 M and 0.02M, respectively for the measurements. Rheological properties of RADA16 (SEQ ID NO:1), KLD12 (SEQ ID NO:2) and IEIK13 (SEQ ID NO:3) compositions were higher after adjusting their ionic strength levels with NaCl to 0.7 M (RADA16 (SEQ ID NO:1)), 0.2 M (KLD12 (SEQ ID NO:2)) or 0.02 M (IEIK13 (SEQ ID NO:3)).
Rheological properties of peptide compositions at selected ionic strengths were measured using a rheometer (DHR-1, TA Instruments) with 20 mm plates. […] Results are shown in FIG. 30 for RADA16 (SEQ ID NO:1) and in FIG. 31 for IEIK13 (SEQ ID NO:3).
Viscosities of peptide compositions at selected ionic strength levels were evaluated. […] Viscosities of 1% IEIK13 (SEQ ID NO:3) compositions were evaluated using a rheometer (DHR-1, TA Instruments) with 20 mm plates. The results are shown in FIGS. 32A and 32B for IEIK13 (SEQ ID NO:3).

Arg-Ala-Asp-Ala-Arg-Ala-Asp-Ala-Arg-Ala-Asp-Ala-Arg-Ala-Asp-Ala [RADA16]
Observation ([1]; RADA16 0.5%, DPBS (pH 3.2) 1.0 M, ionic strength 1.0 M): Cloudy, phase-separated
Observation ([1]; RADA16 0.55%, DPBS (pH 3.2) 0.95 M, ionic strength 0.95 M): Slightly cloudy, brittle gel
Observation ([1]; RADA16 0.6%, DPBS (pH 3.2) 0.9 M, ionic strength 0.9 M): Clear, thick, stiffer gel
Observation ([1]; RADA16 0.75%, DPBS (pH 3.2) 0.75 M, ionic strength 0.75 M): Clear, thick, stiffer gel
Observation ([1]; RADA16 0.9%, DPBS (pH 3.2) 0.6 M, ionic strength 0.6 M): Clear, thick, stiffer gel
Observation ([1]; RADA16 0.93%, KCl 1.15 M, ionic strength 1.15 M): Cloudy, phase-separated
Observation ([1]; RADA16 0.95%, KCl 1.1 M, ionic strength 1.1 M): Slightly cloudy, brittle gel
Observation ([1]; RADA16 0.98%, KCl 1.05 M, ionic strength 1.05 M): Slightly cloudy, thick,
Observation ([1]; RADA16 1.0%, KCl 1.0 M, ionic strength 1.0 M): Clear, thick, stiffer gel
Observation ([1]; RADA16 1.0%, NaCl 1.0 M, ionic strength 1.0 M): Cloudy, phase-separated
Observation ([1]; RADA16 1.03%, KCl 0.95 M, ionic strength 0.95 M): Clear, thick, stiffer gel
Observation ([1]; RADA16 1.03%, NaCl 0.95 M, ionic strength 0.95 M): Cloudy, phase-separated
Observation ([1]; RADA16 1.05%, DPBS (pH 3.2) 0.45 M, ionic strength 0.45 M): Clear, thick, stiffer gel
Observation ([1]; RADA16 1.05%, KCl 0.9 M, ionic strength 0.9 M): Clear, thick, stiffer gel
Observation ([1]; RADA16 1.05%, NaCl 0.9 M, ionic strength 0.9 M): Slightly cloudy, brittle gel
Observation ([1]; RADA16 1.08%, NaCl 0.85 M, ionic strength 0.85 M): Clear, thick, stiffer gel
Observation ([1]; RADA16 1.10%, NaCl 0.8 M, ionic strength 0.8 M): Clear, thick, stiffer gel
Observation ([1]; RADA16 1.13%, KCl 0.75 M, ionic strength 0.75 M): Clear, thick, stiffer gel
Observation ([1]; RADA16 1.13%, NaCl 0.75 M, ionic strength 0.75 M): Clear, thick, stiffer gel
Observation ([1]; RADA16 1.2%, DPBS (pH 3.2) 0.3 M, ionic strength 0.3 M): Clear, thick, stiffer gel
Observation ([1]; RADA16 1.2%, KCl 0.6 M, ionic strength 0.6 M): Clear, thick, stiffer gel
Observation ([1]; RADA16 1.2%, NaCl 0.6 M, ionic strength 0.6 M): Clear, thick, stiffer gel
Observation ([1]; RADA16 1.27%, KCl 0.45 M, ionic strength 0.45 M): Clear, thick, stiffer gel
Observation ([1]; RADA16 1.27%, NaCl 0.45 M, ionic strength 0.45 M): Clear, thick, stiffer gel
Observation ([1]; RADA16 1.28%, CaCl2 0.433 M, ionic strength 1.3 M): Cloudy, phase-separated
Observation ([1]; RADA16 1.28%, MgCl2 0.433 M, ionic strength 1.3 M): Cloudy, phase-separated
Observation ([1]; RADA16 1.29%, CaCl2 0.417 M, ionic strength 1.25 M): Slightly cloudy, brittle gel
Observation ([1]; RADA16 1.29%, MgCl2 0.417 M, ionic strength 1.25 M): Slightly cloudy, brittle gel
Observation ([1]; RADA16 1.3%, CaCl2 0.4 M, ionic strength 1.2 M): Slightly cloudy, thick,
Observation ([1]; RADA16 1.3%, MgCl2 0.4 M, ionic strength 1.2 M): Slightly cloudy, thick,
Observation ([1]; RADA16 1.31%, CaCl2 0.383 M, ionic strength 1.15 M): Clear, thick, stiffer gel
Observation ([1]; RADA16 1.31%, MgCl2 0.383 M, ionic strength 1.15 M): Clear, thick, stiffer gel
Observation ([1]; RADA16 1.32%, CaCl2 0.35 M, ionic strength 1.05 M): Clear, thick, stiffer gel
Observation ([1]; RADA16 1.32%, MgCl2 0.35 M, ionic strength 1.05 M): Clear, thick, stiffer gel
Observation ([1]; RADA16 1.35%, CaCl2 0.3 M, ionic strength 0.9 M): Clear, thick, stiffer gel
Observation ([1]; RADA16 1.35%, DPBS (pH 3.2) 0.15 M, ionic strength 0.15 M): Clear, thick, stiffer gel
Observation ([1]; RADA16 1.35%, KCl 0.3 M, ionic strength 0.3 M): Clear, thick, stiffer gel
Observation ([1]; RADA16 1.35%, MgCl2 0.3 M, ionic strength 0.9 M): Clear, thick, stiffer gel
Observation ([1]; RADA16 1.35%, NaCl 0.3 M, ionic strength 0.3 M): Clear, thick, stiffer gel
Observation ([1]; RADA16 1.38%, CaCl2 0.25 M, ionic strength 0.75 M): Clear, thick, stiffer gel
Observation ([1]; RADA16 1.38%, MgCl2 0.25 M, ionic strength 0.75 M): Clear, thick, stiffer gel
Observation ([1]; RADA16 1.4%, CaCl2 0.2 M, ionic strength 0.6 M): Clear, thick, stiffer gel
Observation ([1]; RADA16 1.4%, MgCl2 0.2 M, ionic strength 0.6 M): Clear, thick, stiffer gel
Observation ([1]; RADA16 1.43%, CaCl2 0.15 M, ionic strength 0.45 M): Clear, thick, stiffer gel
Observation ([1]; RADA16 1.43%, KCl 0.15 M, ionic strength 0.15 M): Clear, thick, stiffer gel
Observation ([1]; RADA16 1.43%, MgCl2 0.15 M, ionic strength 0.45 M): Clear, thick, stiffer gel
Observation ([1]; RADA16 1.43%, NaCl 0.15 M, ionic strength 0.15 M): Clear, thick, stiffer gel
Observation ([1]; RADA16 1.45%, CaCl2 0.1 M, ionic strength 0.3 M): Clear, thick, stiffer gel
Observation ([1]; RADA16 1.45%, MgCl2 0.1 M, ionic strength 0.3 M): Clear, thick, stiffer gel
Observation ([1]; RADA16 1.48%, CaCl2 0.05 M, ionic strength 0.15 M): Clear, thick, stiffer gel
Observation ([1]; RADA16 1.48%, MgCl2 0.05 M, ionic strength 0.15 M): Clear, thick, stiffer gel
Observation ([1]; RADA16 1.5%, CaCl2 0 M, ionic strength 0 M): Clear, thick gel
Observation ([1]; RADA16 1.5%, DPBS (pH 3.2) 0 M, ionic strength 0 M): Clear, thick gel
Observation ([1]; RADA16 1.5%, KCl 0 M, ionic strength 0 M): Clear, thick gel
Observation ([1]; RADA16 1.5%, MgCl2 0 M, ionic strength 0 M): Clear, thick gel
Observation ([1]; RADA16 1.5%, NaCl 0 M, ionic strength 0 M): Clear, thick gel
Ionic strength range that did not noticeably change the opacity of compositions ([1]; approximately, depending on salt identities): 0.85˜1.15 M
Critical ion strength (above it compositions began phase separation) ([1]; from visual observations of Tables 7-9): 0.9 M
Critical ionic strength (when the composition becomes cloudy) ([1]; range over salts): 0.9˜1.2 M
Conc. at cloud point ([1]; salt CaCl2): 0.383~0.4 M
Ionic strength at cloud point ([1]; salt CaCl2): 1.15~1.2 M
Conc. at cloud point ([1]; salt DPBS (pH 3.2)): 0.9~0.95 M
Ionic strength at cloud point ([1]; salt DPBS (pH 3.2)): 0.9~0.95 M
Conc. at cloud point ([1]; salt KCl): 1.0~1.05 M
Ionic strength at cloud point ([1]; salt KCl): 1.0~1.05 M
Conc. at cloud point ([1]; salt MgCl2): 0.383~0.4 M
Ionic strength at cloud point ([1]; salt MgCl2): 1.15~1.2 M
Conc. at cloud point ([1]; salt NaCl): 0.85~0.9 M
Ionic strength at cloud point ([1]; salt NaCl): 0.85~0.9 M
Reversibility after mechanical perturbation ([2]; 0.5% RADA16, 0.125 or 0.25 M CaCl2, vortexing and sonication, 48 hours at room temperature): reversibility can be maintained
Stiffness after disruption ([2]; 0.5% RADA16, 0.5 M CaCl2, vortexing and sonication, 48 hours at room temperature): dramatically less stiffness
Stiffness with salt versus no added salt ([2]; 2.5% RADA16 and 0.125 M CaCl2 versus 2.5% RADA16): noticeable increase in stiffness
Rheological properties as a function of ionic strength ([3]; 1% compositions, NaCl, decreased at higher ionic strength): increased with ionic strength adjustment up to 0.7 M
Rheological properties after adjusting ionic strength with NaCl ([3]; NaCl 0.7 M (RADA16), 0.2 M (KLD12), 0.02 M (IEIK13), 1%): higher
Rheological properties with NaCl versus KCl and CaCl2 ([3]; RADA16 compositions with salts): slightly higher
